Data as given in the supplement of paper PMC9170038.

Assays:
MS2 coat protein [1] = assay: apparent KD of MS2 coat protein, switch OFF state (with FMN for OFF switches, without FMN for ON switches); designed switch direction (-1 OFF switch, 1 ON switch): -1; higher = weaker reporter binding; settings: FMN input: 0 or 200 uM; Eterna round: R93 (includes R88 designs)
Summary of the method: (§1)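 Each design's apparent KD comes from the median of binding-curve fits to its normalised clusters. Those clusters carried RNA switches transcribed on-chip from Illumina sequencing clusters. SNAP-549-labelled MS2 coat protein was titrated onto them in twofold steps (0.7 or 1.5 nM to 3 µM; per step 0.8–1.5 h down to 10–20 min). Conditions were 100 mM Tris-HCl pH 7.5, 80 mM KCl, 4 mM MgCl2, without or with constant ligand.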

MS2 coat protein [2] = assay: apparent KD of MS2 coat protein, switch ON state; designed switch direction (-1 OFF switch, 1 ON switch): -1; higher = weaker reporter binding; settings: FMN input: 0 or 200 uM; Eterna round: R93 (includes R88 designs)
Summary of the method: as §1

AGCAGUACAGGAUAUACAUGAGGAUCACCCAUGUGAAAAAAAAGUGGCGUACCACAAAGUAGAAGGGUACUGCA [Mat - Exclusion 3 - JL mod - D32]
apparent KD of MS2 coat protein (MS2 coat protein [1]): 108 nM | apparent KD of MS2 coat protein (MS2 coat protein [2]): 35.4 nM

AGCUAGACAGGAUAUACGUAAAUGUCGAAAGACGUAUAGGGACAUGAGGAUCACCCAUGUAGAAGGGUCUAGCA [Diamond 100]
apparent KD of MS2 coat protein (MS2 coat protein [1]): 39.6 nM | apparent KD of MS2 coat protein (MS2 coat protein [2]): 22.7 nM

AGGAAACAUGAGGAUCACCCAUGUAAGGAUAUGAGAAAGAAAAGAAAAGAAAGAAGAAUCAGAAGGUACAAGAA [Semerkhet]
apparent KD of MS2 coat protein (MS2 coat protein [1]): 89.2 nM | apparent KD of MS2 coat protein (MS2 coat protein [2]): 34.4 nM

AGGAAACAUGAGGAUCACCCAUGUGAGGAUAUCAGAAAGAAAAGAAAAGAAAGAAGAAUGAGAAGGCACAAGAA [Hotepsekhemwy]
apparent KD of MS2 coat protein (MS2 coat protein [1]): 40.8 nM | apparent KD of MS2 coat protein (MS2 coat protein [2]): 26 nM

AGGAAACAUGAGGAUCACCCAUGUGAGGAUAUUGGAAAGAAAAGAAAAGAAAGAAGAAUAAGAAGGCACAAGAA [Merneith]
apparent KD of MS2 coat protein (MS2 coat protein [1]): 18.2 nM | apparent KD of MS2 coat protein (MS2 coat protein [2]): 21.8 nM

AGGAUGUCAGGAUAUGUGUAAAGAAUAAAACAAAUAACAACACAGAAGGGACAUGAGGAUCACCCAUGUUAAAA [May 36]
apparent KD of MS2 coat protein (MS2 coat protein [1]): 54 nM | apparent KD of MS2 coat protein (MS2 coat protein [2]): 44.9 nM

AGUAUGCGAGGAUAUACAUGAGGAUCACCCAUGUGAGAGAUAUGAGUGAGAAAGACAAGUAGAAGGCGCGUACA [JL Lego Mod 26]
apparent KD of MS2 coat protein (MS2 coat protein [1]): 11.4 nM | apparent KD of MS2 coat protein (MS2 coat protein [2]): 99.8 nM

AGUCAUACAGGAUAUACAUGAGGAUCACCCAUGUUUAUCCUAAAAAGGUGAUCCUCAUGUAGAAGGGUAUGACA [EX3 210: Super Stable 10]
apparent KD of MS2 coat protein (MS2 coat protein [1]): 16.6 nM | apparent KD of MS2 coat protein (MS2 coat protein [2]): 12.4 nM

AGUUGGCGAGGAUAUACAUGAGGAUCACCCAUGUGAGAAAAAAAAGUGAGAAAGAAAAGUAGAAGGCGCUGACA [Mat - Exclusion 3 - Lego mod - D88]
apparent KD of MS2 coat protein (MS2 coat protein [1]): 314 nM | apparent KD of MS2 coat protein (MS2 coat protein [2]): 54.6 nM

AUAAAACAUGAGGAUCACCCAUGUAAGGAUAUGCGAAAAUAAAAUAAAAUAAAAUAAAGCAGAAGGUACAAAAA [Insulation 1]
apparent KD of MS2 coat protein (MS2 coat protein [1]): 37.3 nM | apparent KD of MS2 coat protein (MS2 coat protein [2]): 29.1 nM

AUAAACUGAGGAUAUACAUGAGGAUCACCCAUGUAAAAAAAAAAAAGUUCCUCAAAAAGUAGAAGGCAGAAUAA [JR_Exc003_Sub013]
apparent KD of MS2 coat protein (MS2 coat protein [1]): 19.4 nM | apparent KD of MS2 coat protein (MS2 coat protein [2]): 13.2 nM

AUAAAGCGAGGAUAUACAUGAGGAUCACCCAUGUAAAUAAAUAGGAGAGCCACAAUAAGUAGAAGGUGCAAUAA [JR_Exc003_Sub008]
apparent KD of MS2 coat protein (MS2 coat protein [1]): 46.5 nM | apparent KD of MS2 coat protein (MS2 coat protein [2]): 54.8 nM

AUAAGUCGAGGAUAUACAAAAUGCUAGCGAAAGCUAGCAUAACAUGAGGAUCACCCAUGUAGAAGGCGACAAUA [Tetraloop hairpin BlockHead Variation2]
apparent KD of MS2 coat protein (MS2 coat protein [1]): 21.3 nM | apparent KD of MS2 coat protein (MS2 coat protein [2]): 21.7 nM

AUAGGCCUAGGAUAUACAUGAGGAUCACCCAUGUUAAUAAUUCAAACAUGAUAAACGUGUAGAAGGAGGAAUAA [JR_Exc003_Sub302]
apparent KD of MS2 coat protein (MS2 coat protein [1]): 65.3 nM | apparent KD of MS2 coat protein (MS2 coat protein [2]): 40.8 nM

AUCAUGUCAGGAUAUCGUGCAGCUACCGAAAGGUAGCUGCACGAGAAGGGACAUGAGGAUCACCCAUGUAUGAA
apparent KD of MS2 coat protein (MS2 coat protein [1]): 24.3 nM | apparent KD of MS2 coat protein (MS2 coat protein [2]): 27.7 nM

AUCGAUCGAGGAUAUACAUGAGGAUCACCCAUGUAAAAAAAAAAAAAGGCCUCAGGAUGUAGAAGGCGACGCAA [JR_Exc003_Sub403]
apparent KD of MS2 coat protein (MS2 coat protein [1]): 18.7 nM | apparent KD of MS2 coat protein (MS2 coat protein [2]): 18.5 nM

AUCGUUGGAGGAUAUGCUUGGAAAAAAAAAAAAAAAAAAAAACAUGAGGAUCACCCAUGUAGAAGGUCAAUGGA [Banishment 6 - Jieux - Exclusion 2]
apparent KD of MS2 coat protein (MS2 coat protein [1]): 30.5 nM | apparent KD of MS2 coat protein (MS2 coat protein [2]): 49.9 nM

AUGUACCUAGGAUAUACAUGAGGAUCACCCAUGUAUUGGGAGCAAUCCAGUUAAUAUUGUAGAAGGAGGUGAAA [JR_Exc003_Sub317]
apparent KD of MS2 coat protein (MS2 coat protein [1]): 65 nM | apparent KD of MS2 coat protein (MS2 coat protein [2]): 38.1 nM

AUUCUACAUGAGGAUCACCCAUGUGAGGAUAUGCUAUACUAUUGUUGCAAUACUUAGAGCAGAAGGCACAUCGU [JR_EXc001_Sub801]
apparent KD of MS2 coat protein (MS2 coat protein [1]): 66.2 nM | apparent KD of MS2 coat protein (MS2 coat protein [2]): 30.2 nM

CAAAACAAAGGAUAUAAAACAGAGGAUAUACAUAAAUAAAAACAUGAGGAUCACCCAUGUAGAAGGCUGAAAAC [Meechl Ex2 R2 m3]
apparent KD of MS2 coat protein (MS2 coat protein [1]): 23 nM | apparent KD of MS2 coat protein (MS2 coat protein [2]): 21.9 nM

CAAAAGGAAGGAUAUACAUAAUAAAACGGGCGGGCACCUUGACAUGAGGAUCACCCAUGUAGAAGGUCCAAUAA [Ramaanan]
apparent KD of MS2 coat protein (MS2 coat protein [1]): 18.1 nM | apparent KD of MS2 coat protein (MS2 coat protein [2]): 16.9 nM

CAAAGGUGAGGAUAUACGAGGAUAUGACGAAAGUCAUAAAAACAUGAGGAUCACCCAUGUAGAAGGCACCACAA [E2 64% 5]
apparent KD of MS2 coat protein (MS2 coat protein [1]): 32.8 nM | apparent KD of MS2 coat protein (MS2 coat protein [2]): 27.8 nM

CAGUACUGAGGAUAUACAUGAGGAUCACCCAUGUGAUCAAGCUACGAAAGUAGCACAUGUAGAAGGCAGUACUG [Ex3: 808]
apparent KD of MS2 coat protein (MS2 coat protein [1]): 19.1 nM | apparent KD of MS2 coat protein (MS2 coat protein [2]): 24 nM
